The text below walks through data of patent publication US20100092489A1 (Genmab, published 2010).

Assay [1] has as its target T1, human CD38 expressed on cells (CHO-CD38, Daudi-luc, fresh multiple myeloma tumor cells) (human, UniProt P28907 1-300). The assay can be described thus: cell-based or functional assay.
Assay [2] deals with T1, human CD38 expressed on cells …. The assay can be described thus: flow cytometry on fresh MM tumor cells, FITC-labeled antibody.
The target is the same in assay [3]. Description: flow cytometry on Daudi-luc cells, rabbit anti-human IgG-FITC. Background: Flow cytometry measures light scatter and fluorescence of single cells or particles in a stream.
Procedure: (§1) After harvesting and counting, Daudi-luc cells, CHO cells transfected with CD38 and control CHO cells were resuspended in PBS (1×10⁶ cells/ml). Then, cells were put in 96-well V-bottom plates (100 μl/well) and washed twice in PBS-BSA (PBS supplemented with 0.1% BSA and 0.02% Na-azide). Thereafter, 50 μl antibody solution in PBS-BSA was added to the cells (4° C., 30 min). After washing three times in PBS-BSA, 50 μl (1:400 dilution) of rabbit anti-human IgG-FITC in PBS-BSA was added (4° C. in the dark, 30 min). Cells were washed three times and specific binding of CD38-antibodies to CHO-CD38 and Daudi-luc cells was detected by flow cytometry.
Assay [4] shares this target. The assay can be described thus: cell-based or functional assay. The source holds these as a separate data set.
Assay [5] shares this target. The assay can be described thus: flow cytometry on CHO-CD38 cells, rabbit anti-human IgG-FITC.
Procedure: as §1
The target in assay [6] is T2, HA-CD38 (HA-tagged extracellular domain of human CD38, wild type) (human, UniProt P28907 43-300).
T2 construct: The signal peptide SPHMM of the construct is not part of the secreted protein; also called HA-tagged CD38; wt human CD38; not shown: N-terminal HA-tag introduced by PCR primer cd38forha
The assay can be described thus: SPR, Biacore 3000, 25° C., antibody immobilized on CM-5 chip, HA-tagged CD38 flowed over; mean of 3 experiments ± SD. (In general: SPR reads the build-up and loss of mass on a sensor chip optically.)

For assay [7], the target named is T1, human CD38 expressed on cells …. Description: cell-based or functional assay. This is another data set of the same source.
The target is the same in assay [8]. Description: cell-based or functional assay. The source holds these as a separate data set.

A word on the EC50: it is the concentration at which the effect is half-maximal. The term Kd denotes the free concentration of one partner at which half of the binding sites on the other are occupied at equilibrium, for simple one-to-one binding. Lower therefore signals a tighter complex.

B1: antibody -024 (antibody, human IgG1, V domains shown)
VH: EVQLVQSGAEVKKPGESLKISCKGSGYSFSNYWIGWVRQMPGKGLEWMGIIYPHDSDARYSPSFQGQVTFSADKSISTAYLQWSSLKASDTAMYYCARHVGWGSRYWYFDLWGRGTLVTVSS
VL: EIVLTQSPATLSLSPGERATLSCRASQSVSSYLAWYQQKPGQAPGLLIYDASNRASGIPARFSGSGSGTDFTLTISSLEPEDFAVYYCQQRSNWPLTFGGGTKVEIK
notes: Human monoclonal IgG1 antibody; Recombinant form made with human IgG1 heavy chain constant region (pConG1f0.4) and kappa light chain constant region (pConKappa0.4)
B1: in assay [1], the “EC50 CD38-CHO, CDC” value was 0.24 µg/mL. Besides, the “EC50 Daudi-luc, CDC” value in assay [1] was above 90 µg/mL. Also, the EC50 was 0.02 µg/mL in assay [2], 0.05 µg/mL in assay [3] and 0.08 µg/mL in assay [5]. The “EC50 Daudi-luc, ADCC (51Cr release)” value in assay [4] worked out at 9.7 ng/mL. Moreover, the “EC50 MM cells, ADCC (51Cr release)” value in assay [4] amounted to 56 ng/mL.

B2: antibody -003 (antibody, human IgG1, V domains shown)
VH: not shown
VL: DIQMTQSPSSLSASVGDRVTITCRASQGISSWLAWYQQKPEKAPKSLIYAASSLQSGVPSRFSGSGSGTDFTLTISSLQPEDFATYYCQQYNSYPRTFGQGTKVEIK
notes: Human monoclonal IgG1 antibody; Recombinant form made with human IgG1 heavy chain constant region (pConG1f0.4) and kappa light chain constant region (pConKappa0.4); FITC-labelled in some assays; also called HuMab -003; -003-2F5
In assay [6], B2 had a Ka of 1.14e+09 M⁻¹ and a dissociation constant (Kd) of 0.885 nM. In addition, in assay [1], the “EC50 CD38-CHO, CDC” value was found to be 3.14 µg/mL and the “EC50 Daudi-luc, CDC” value was above 90 µg/mL. Also, the “Log EC50, ADCC of Daudi target cells (n=5)” value in assay [7] turned out to be 1.17. The “EC50, CDC of CHO-CD38 cells (n = 2)” value in assay [8] worked out at 4.5 µg/mL. The 50% effective concentration (EC50) in assay [2] was 0.56 µg/mL. Besides, the EC50 in assay [3] is 0.26 µg/mL. In addition, in assay [4], the “EC50 Daudi-luc, ADCC (51Cr release)” value worked out at 9 ng/mL and the “EC50 MM cells, ADCC (51Cr release)” value was determined as 27 ng/mL. This molecule yielded a concentration for a half-maximal effect (EC50) in assay [5] of 0.54 µg/mL.
